The values that follow are results of earlier work, collected in paper PMC5860782.

The data set has as its target clathrin light chain (Saccharomyces cerevisiae) (UniProt P17891).
UniProt P17891, sequence (P17891 whole entry): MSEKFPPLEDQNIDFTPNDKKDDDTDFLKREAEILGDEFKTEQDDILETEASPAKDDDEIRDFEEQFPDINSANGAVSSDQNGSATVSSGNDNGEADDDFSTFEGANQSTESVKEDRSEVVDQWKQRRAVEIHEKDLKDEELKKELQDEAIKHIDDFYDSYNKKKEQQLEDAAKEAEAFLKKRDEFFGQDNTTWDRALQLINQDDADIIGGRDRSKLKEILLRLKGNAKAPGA

In the case of “clathrin heavy chain (from UniProt P22137)”, the dissociation constant Kd was 1 nM.
